This note sets out measurements from paper PMC3463621.

The assay concerns the target recombinant collagen α1(XI) amino terminal domain (NTD) (UniProt P20909). Put plainly: SPR.
Chain of UniProt P20909 (P20909 35-1561): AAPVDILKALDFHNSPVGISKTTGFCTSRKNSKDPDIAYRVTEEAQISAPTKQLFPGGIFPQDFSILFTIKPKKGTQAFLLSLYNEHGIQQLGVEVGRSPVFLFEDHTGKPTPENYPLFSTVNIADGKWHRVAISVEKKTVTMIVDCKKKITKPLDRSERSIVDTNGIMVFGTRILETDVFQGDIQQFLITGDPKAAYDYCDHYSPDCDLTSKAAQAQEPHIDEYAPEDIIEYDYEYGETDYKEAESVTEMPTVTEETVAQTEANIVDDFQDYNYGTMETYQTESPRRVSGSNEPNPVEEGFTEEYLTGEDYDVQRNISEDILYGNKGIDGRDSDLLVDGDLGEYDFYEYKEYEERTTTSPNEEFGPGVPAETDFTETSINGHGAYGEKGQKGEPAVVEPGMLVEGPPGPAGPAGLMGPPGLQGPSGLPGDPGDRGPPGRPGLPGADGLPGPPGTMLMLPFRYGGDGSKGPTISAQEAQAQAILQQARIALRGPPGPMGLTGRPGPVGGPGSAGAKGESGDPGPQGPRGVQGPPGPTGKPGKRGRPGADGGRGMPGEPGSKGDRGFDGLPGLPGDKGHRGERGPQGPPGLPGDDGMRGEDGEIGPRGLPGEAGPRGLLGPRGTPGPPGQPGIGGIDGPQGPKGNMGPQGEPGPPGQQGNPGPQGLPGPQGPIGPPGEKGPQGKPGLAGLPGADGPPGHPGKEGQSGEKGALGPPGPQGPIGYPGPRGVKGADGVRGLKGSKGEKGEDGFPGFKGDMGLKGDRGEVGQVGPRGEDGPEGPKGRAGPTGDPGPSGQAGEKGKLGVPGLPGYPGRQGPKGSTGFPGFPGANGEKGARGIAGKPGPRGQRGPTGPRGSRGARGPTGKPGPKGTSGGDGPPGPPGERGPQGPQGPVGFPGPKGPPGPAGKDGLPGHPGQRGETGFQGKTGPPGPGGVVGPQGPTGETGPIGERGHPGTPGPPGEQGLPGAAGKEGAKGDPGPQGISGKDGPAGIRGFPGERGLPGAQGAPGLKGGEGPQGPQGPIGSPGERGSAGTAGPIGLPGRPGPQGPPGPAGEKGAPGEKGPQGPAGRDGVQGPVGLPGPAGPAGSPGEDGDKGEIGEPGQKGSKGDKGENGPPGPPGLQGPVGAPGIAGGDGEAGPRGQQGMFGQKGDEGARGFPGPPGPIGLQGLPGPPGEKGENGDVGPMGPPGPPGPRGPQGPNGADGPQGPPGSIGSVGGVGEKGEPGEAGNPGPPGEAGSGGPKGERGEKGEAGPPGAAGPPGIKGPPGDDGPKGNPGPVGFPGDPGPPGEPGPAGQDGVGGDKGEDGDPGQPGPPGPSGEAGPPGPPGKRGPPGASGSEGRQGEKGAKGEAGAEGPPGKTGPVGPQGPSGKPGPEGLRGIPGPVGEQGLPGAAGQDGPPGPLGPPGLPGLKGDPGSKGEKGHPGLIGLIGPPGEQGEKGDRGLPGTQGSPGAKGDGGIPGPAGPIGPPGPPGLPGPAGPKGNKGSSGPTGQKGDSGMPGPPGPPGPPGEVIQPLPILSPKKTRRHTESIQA

Regarding “Thrombospondin 1 (R&D Systems) (from UniProt P07996 19-1170) (natural protein)”, the Kd – broadly, a measure of binding affinity in units of concentration – was found to be 100 nM.
